This is an account of results in the supplement of paper PMC10567573.

B1: TRIM55 (parent)
chain: YLPTRGGTTMASGGRFRCPSCRHE
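Further: lentivirally expressed fusions sorted by FACS into six bins by GFP to DsRed ratio, PSI derived from sequencing read proportions per bin multiplied by bin number.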

The variants in the series derive from B1. Briefly: protein stability index of a GFP-peptide fusion (GPS, HEK-293T) (PSI 1-6); higher = more stable. The note with it: c terminus: a fixed tail appended.
For the variant YLPTRGGTTTASGGRFRCPSCRHE, the protein stability index is 4.08.
Turning to YLPTRGGTTPASGGRFRCPSCRHE, the protein stability index was determined as 2.5.
With YLPTRGGTTWASGGRFRCPSCRHE the figure was 2.58.
In the case of YLPTRGGTTIASGGRFRCPSCRHE, the protein stability index came out at 2.27.
Regarding YLPTRGGTTYASGGRFRCPSCRHE, the protein stability index was found to be 1.89.
Under YLPTRGGTTGASGGRFRCPSCRHE stands 2.61.
Under YLPTRGGTTKASGGRFRCPSCRHE stands 1.11; under YLPTRGGTTQASGGRFRCPSCRHE, 2.03; under YLPTRGGTTNASGGRFRCPSCRHE, 1.96.
As for YLPTRGGTTVASGGRFRCPSCRHE, the protein stability index stood at 1.65.
Turning to YLPTRGGTTCASGGRFRCPSCRHE, the protein stability index turned out to be 2.91.
With YLPTRGGTTEASGGRFRCPSCRHE the figure was 1.97.
Under YLPTRGGTTAASGGRFRCPSCRHE stands 2.85.
Regarding YLPTRGGTTMASGQRFRCPSCRHE, the protein stability index amounted to 1.26.
In the case of YLPTRGGTTMASGYRFRCPSCRHE, the protein stability index is 1.69.
With YLPTRGGTTMASGMRFRCPSCRHE the figure was 2.76; with YLPTRGGTTMASGFRFRCPSCRHE, 2.04.
Turning to YLPTRGGTTMASGKRFRCPSCRHE, the protein stability index amounted to 1.83.
With YLPTRGGTTMASGCRFRCPSCRHE the figure was 3.76; with YLPTRGGTTMASGARFRCPSCRHE, 2.23; with YLPTRGGTTMASGLRFRCPSCRHE, 1.29.
Turning to YLPTRGGTTMASGNRFRCPSCRHE, the protein stability index amounted to 2.42.
With YLPTRGGTTMASGTRFRCPSCRHE the figure was 2.89.
With YLPTRGGTTMASIGRFRCPSCRHE the figure was 1.33; with YLPTRGGTTMASHGRFRCPSCRHE, 2.62; with YLPTRGGTTMASNGRFRCPSCRHE, 1.89.
As to YLPTRGGTTMASTGRFRCPSCRHE, the protein stability index worked out at 1.88.
On to YLPTRGGTTMASDGRFRCPSCRHE, for which the protein stability index stood at 2.37.
Under YLPTRGGTTMASQGRFRCPSCRHE stands 1.51.
With YLPTRGGTTMASEGRFRCPSCRHE the figure was 2.25; with YLPTRGGTTMASPGRFRCPSCRHE, 1.44.
With YLPTRGGTTMASMGRFRCPSCRHE the figure was 1.96; with YLPTRGGTTMASFGRFRCPSCRHE, 2.39.
For YLPTRGGTTMASWGRFRCPSCRHE, the protein stability index was determined as 1.12.
With YLPTRGGTTMASAGRFRCPSCRHE the figure was 2.47.
Under YLPTRGGTTMASRGRFRCPSCRHE stands 1; under YLPTRGGTTMASKGRFRCPSCRHE, 1.38; under YLPTRGGTTMASGGRSRCPSCRHE, 3.94.
Under YLPTRGGTTMASGGRYRCPSCRHE stands 1.57.
In the case of YLPTRGGTTMASGGRARCPSCRHE, the protein stability index turned out to be 3.43.
With YLPTRGGTTMASGGRKRCPSCRHE the figure was 2.01.
With YLPTRGGTTMASGGRVRCPSCRHE the figure was 2.71; with YLPTRGGTTMASGGRCRCPSCRHE, 3.06; with YLPTRGGTTMASGGRNRCPSCRHE, 2.33.
Under YLPTRGGTTMASGGRMRCPSCRHE stands 1.74; under YLPTRGGTTMASGGRTRCPSCRHE, 2.98.
Consider YLPTRGGTTMASGGYFRCPSCRHE, for which the protein stability index stood at 1.44.
With YLPTRGGTTMASGGFFRCPSCRHE the figure was 2.76.
Regarding YLPTRGGTTMASGGLFRCPSCRHE, the protein stability index was 1.81.
With YLPTRGGTTMASGGDFRCPSCRHE the figure was 2.78.
Under YLPTRGGTTMASGGVFRCPSCRHE stands 1.24; under YLPTRGGTTMASGGTFRCPSCRHE, 2.53; under YLPTRGGTTMASGGAFRCPSCRHE, 2.02.
Under YLPTRGGTTMASGGKFRCPSCRHE stands 2.05; under YLPTRGGTTMASGGHFRCPSCRHE, 1.39.
Regarding YLPTRGGTTMASGGSFRCPSCRHE, the protein stability index was found to be 1.65.
Under YLPTRGGTTMASGGEFRCPSCRHE stands 2.35; under YLPTRGGTTMASGGMFRCPSCRHE, 1.31; under YLPTRGGTTMASGGQFRCPSCRHE, 1.58.
Under YLPTRGGTTMASGGCFRCPSCRHE stands 2.02; under YLPTRGGTTMASGGPFRCPSCRHE, 1.49; under YLPTRGGTTMISGGRFRCPSCRHE, 1.05.
For YLPTRGGTTMRSGGRFRCPSCRHE, the protein stability index turned out to be 1.37.
Under YLPTRGGTTMQSGGRFRCPSCRHE stands 1.96; under YLPTRGGTTMNSGGRFRCPSCRHE, 1.65.
With YLPTRGGTTMFSGGRFRCPSCRHE the figure was 1.98; with YLPTRGGTTMESGGRFRCPSCRHE, 2.
Under YLPTRGGTTMYSGGRFRCPSCRHE stands 3.34; under YLPTRGGTTMTSGGRFRCPSCRHE, 2.46.
In the case of YLPTRGGTTMHSGGRFRCPSCRHE, the protein stability index was 1.83.
Under YLPTRGGTTMMSGGRFRCPSCRHE stands 1.18; under YLPTRGGTTMKSGGRFRCPSCRHE, 1.36; under YLPTRGGTPMASGGRFRCPSCRHE, 2.49.
For the variant YLPTRGGTAMASGGRFRCPSCRHE, the protein stability index was determined as 2.77.
Under YLPTRGGTQMASGGRFRCPSCRHE stands 1.11.
With YLPTRGGTEMASGGRFRCPSCRHE the figure was 2.66; with YLPTRGGTMMASGGRFRCPSCRHE, 1.36; with YLPTRGGTFMASGGRFRCPSCRHE, 2.12.
YLPTRGGTRMASGGRFRCPSCRHE: the protein stability index turned out to be 1.82.
Under YLPTRGGTGMASGGRFRCPSCRHE stands 1.26.
Regarding YLPTRGGTNMASGGRFRCPSCRHE, the protein stability index came out at 2.01.
With YLPTRGGYTMASGGRFRCPSCRHE the figure was 4.26; with YLPTRGGTTMATGGRFRCPSCRHE, 1.49.
Under YLPTRGGTTMAMGGRFRCPSCRHE stands 1.76; under YLPTRGGTTMAVGGRFRCPSCRHE, 2.42.
For the variant YLPTRGGTTMAYGGRFRCPSCRHE, the protein stability index was 1.28.
Turning to YLPTRGGTTMAAGGRFRCPSCRHE, the protein stability index worked out at 1.87.
With YLPTRGGTTMAEGGRFRCPSCRHE the figure was 2.09; with YLPTRGGTTMAPGGRFRCPSCRHE, 2.32.
Take YLPTRGGTTMADGGRFRCPSCRHE: the protein stability index is 1.34.
With YLPTRGGTTMAGGGRFRCPSCRHE the figure was 2.1; with YLPTRGGTTMACGGRFRCPSCRHE, 1.41.
Turning to YLPTRGGTTMAHGGRFRCPSCRHE, the protein stability index is 2.29.
As to YLPTRGGTTMAIGGRFRCPSCRHE, the protein stability index is 2.18.
